Assay: yeast display, Sf9 membrane polyspecificity reagent, FACS + sequencing; frameworks hold sequencing errors
Summary of the method: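 A synthetic nanobody library was expressed on Saccharomyces cerevisiae BJ5465 by galactose induction for 36–48 hours. The library was stained for 1 hour at 4 °C with 10% biotinylated, detergent-solubilized Sf9 membrane reagent and enriched with streptavidin microbeads before FACS. Low and high (top ~1%) gates were set on anti-HA fluorescence for expression and streptavidin fluorescence for reagent binding, and each polyreactivity label reflects the gate of origin.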

Row | Sequence | polyreactivity (PSR sort gate)
1 | QVQLVESGGALVQAGGILRLSCAASGRTFQYNVMGWYRQAPGKEREFVAAITWNGGSTYYADSVKGRFTISRDKAKNTVYLQMISLKPEDPAVYYCAARWTKKLEYGYWGQGTQVTVSS | low polyreactivity
2 | QVQLVESGGGLVQAGGSLRLSCAASGLIFLYAMGWYRQAPGKERELVAAISNGGSTYYADSVKGRFTISRDNAKNTVYLQMYSLKPEDTAVYYCAVYYPGKYGYWGQGTQVTVSS | high polyreactivity
3 | QVQLVESGGGLVQAGGSLRLSCAASGITFPYYAMGWSRQAPGKERELVAAISSSGGSTYYADSVKGRFTISRDNAKNTVYLQLNSLKPEDTAVYYCAAQRYINYDYWGQGTQVTVSS | high polyreactivity
4 | QVQLVETGGGLVQAGGSLRLSCAASGRTFAKYAMGWYRQAPGKERDLVASISGRGTNTYYADSVKGRFTISRDNAKNTVYLQMNSLKPEDTAVYYCAATYVYPYRDSHYFYWGQGTQVTVSS | high polyreactivity
5 | QVQLVESGGGLVQAGGSLRLSCAASGSIFSRYAMVWYRQAPGKERELVAAISWSGGRTYYADSVKGRFTISRDNAKNTVYLQMNSLKPEDTAVYYCAAPSYTTSWRYDYWGQGTQVTVSS | high polyreactivity
6 | QDQLVESGGGLVQAGGSLRLSCAASGSIFSTNAMGWYRQAPGKERELVAAITYSGSRTYYADSVKGRFTISRDTAKNTVFLQMNSLKPEDTAVYYCAADTSWYSWWFDYWGQGTQVTVSS | low polyreactivity
7 | QVQLVESGGGLVQAGGSLRLSCAASGFTFYYYAMGWYRQAPGKERELVAAISSGGSTNYADSVKGRFTISRDNAKNTVYLPRNSLKPEDTAVYYCAAPQPYWWAYRYDYWGQGTQVTVSS | low polyreactivity
8 | QVQLVESGGGLVQAGGSLRLSCAASGSTFYKNSMGWYRQAPGKERELVATISASSTSTYYADSVKGRFTISRDNAKNTVYLQMNSLKPEATAVYYCSKVYVHGSTYGYYWYGYDYWGQGTQVTVSS | low polyreactivity
9 | QVQLVESGGGLVQAGGSLRLSCAASGSIFYSNAMGWYRQAPGKEREFVAAISAGGGSTYYADSVKGRFTISRDHSKNTVYFQMNSLKPEDTAVYYCAKGPLPRAGVKFDYWGQGTQVTVSS | low polyreactivity
10 | QVQLVESGGGLVQAGGSLRLICAASGRTFNPYAMGWYRQAPGKERELVAAISSGGNTNYADSVKGRFTISRDNAKNSVYLQMNSLKPEDTAVYYCATGLRWYHQLTGGYWGQGTQVTVSS | high polyreactivity
11 | QVQLVESGGGLVQAGGSLRLSCAASGFTFYYNAMGWYRQAPGKERELVAAITWDGGRTYYADSVKGRYTISRDNAKNTVYLQMNSLKTVDTAVYYCAAVEYSEHWDGYSWGEYYYWGQGTQVTVSS | high polyreactivity
12 | QVQLVESGGGLVQAGGSLRLSCAASGSIFYSNAMGWSRPAPGKEWELVAGITWTGGSTYYADSVKGRFTISRDNAKNTVYLQMNSLKPEYTEVYYCADRVYYRTVLGGYYYWGQGTQVTVSS | low polyreactivity
13 | QVQLVESGGGLVQAGGSLRLSCAASGSIFARYTMGGYRPAPGKASELVAAISTSGSRTYYADSVKGRFTISRDNAKKTVYLQRYSLKPEDTAVYFCAARNGGRYAPGLDYWGQGTQVTVSS | high polyreactivity
14 | QVQLVESGGGLVQAGGSLRLSCAASGRTFENYAMGWYRQAPGKERELVAAISKSGGSTYYADSVKGRFTISRDNAKNTVYLQMNSLKPEDTAVYYCATRLTSAVGRYLYDFGYWGQGTQVTVSS | high polyreactivity
15 | QVHLVESGGGLVQAGGSLRLSCAASGSTLSFYAMGWYRQAPGKERELVAAISYSTGTTYYADSVKGRFTISRDNAKNTVYLQMNSLKPEDSAVYYCAARWVWLHSRYDYWGQGTQVTVSS | high polyreactivity
16 | QVQLVESGGGLVQAGGSLRLSCAASGSIFRSYAMGWYRQAPGKERELVAGISYSGGSTYYADSVKGRFTISRDKAKNTVYLQMNSLKPEDTAVYYCNVDGGTYFFFVGAWGEYDYWGQGTQVTVSS | low polyreactivity
17 | QVQLVESGGRLVQAGGSLRLSCAASGITIRWYAKGWYRQAPGKERELVSRIDGRGASTYADSVKGRFTSSRDNAKNTVYLQMNRLKPEDTAVYYCAVAQVRVSYLWVRKFYYWGQGTQVTVSS | high polyreactivity
18 | QVQLVESGGGLVKAGVSLRLICAASGSTFDGNDMGWYRQAHGKERELVATINSDDSKNYADSVKGRFTISRDNAKNTVYLQMNSLKPEDTAVYYCAARLYVTPILSYVERYTNDYWGQGTQVTVSS | low polyreactivity
19 | QVQLVESGGGLVQAGGSLRLSCAASGSIFDDYAMGWYRQAPGKERELVAAISWSGGSTYYADSVKGRFTISRDNAKNTVYLQINSLKPEDTAVYYCAKESGWVGAIHYDYWGQGTQVTVSS | low polyreactivity
20 | QVQLVESGGGLVQAGGSLRLSCAASGSTFDRYAMGWYRQAPGKERELVASISRSGGNTYYADSVKGRFTISRDNAKNTVYVPMNSLKPDDTAGYYSNKPIGRYSRNRYGYWGQATQVTVSS | high polyreactivity
21 | QVQLVESGGGLVQAGGSLRLSCAASGITFNTDTMGWYRQAPGKEWELVAAITLSGAGTYYADSVKGRFTISRDNAKNTVYLQMNSLKPEDTAVYYCAAYLSENRWPYVRYDYWGQGTQVTVSS | high polyreactivity
22 | QVQLVESGGGLVQARGSLRLSCAASGIIFAFYAMGWYRQPPGKERELVAGITSGGDTYYADSVKGRFTISRDNAKKTVYLQMNRLKPEDTAVYYCAAVVQYPYRAGWRYWYATNFDYWGQGTQVTVSS | high polyreactivity

Row | Sequence | polyreactivity (PSR sort gate)
23 | QVQLVESGAGLVQAGGSLRLSCAASGSIFIHYAMGWYRQARGKERELVAAITGDGNTTYADSVKGRFTISRDNAQNTVNLQINSLKPEDTAVYYCAVTIVDYYWAFDYWGQGTQVTVSS | low polyreactivity
24 | QVQLVESGGGFVQAGGSLRLSCAASGSIFYLYAMGWYRQAPGKERELVAAITSIGGSTYADSVKGRFTISRDNAKYTVYLQMNSLKPEDTAVYYCATYVAYHRGYRTYDQWGQGTQVTVSS | low polyreactivity
25 | QVQLVESGGGLVQAGGSLRLSCAASGRIFGSYTMGWYRQAPGKERELVAAISFSGARTRYADSVKGRFTISRDNANNTVYLQMNSLKPEDTAVYYCAARFTGGKYDYWGQGTQVTVSS | high polyreactivity
26 | QVQLVQSGGGLVQAGGSLSLSCAASGRIFGINAMGWYRQAPGKESELVAAISSGGSTYYADSVKGRFTISLDNAKNTVYLQMNSLKPEDTAVYYCAADYDSYVSHDRGVWRDYWGQGTQVTVSS | low polyreactivity
27 | QVQLVESGGGLVQAGGSLSLSCAASGLTFFGYAIGWYRQAPGKEREVVAAISTSGTRTYYADSVKGRFTISRDNAKNTVYLQMNSLKPEDTAVYYCATVRYQEYDYWGQGTQVTVSS | high polyreactivity
28 | QVQLVESGGGLVQAGGSLRLSCAASGFIIYRNARGWYRQAPGKERELVAGISSGGSTNYADSVKGRFTISRDNAKNTVYLQMTSLKPEDTADYYCATRVYALWFGRYDYWGQGTQVTVSS | high polyreactivity
29 | QVQLVESGGGLVQAGGSLRLSCAASGSISFSNAMGWYRQAPGKERELVASITSGGSTKYADSVKGRFTISRDNAKNTVFLQMNSLKPEDTAVFYCAADGYDYWGQGTQVTVSS | low polyreactivity
30 | QVHLVESAGGLVQAGGSLRLSCAASGLIFGTYAMGWYRPAPGKERELVATINSSGGSTYYADSVKGRFTISRDNAKNTVYLQINSLKPEDTAVYYCAADNWVNDGDYWGQGTQVTVLS | low polyreactivity
31 | QVQLVESGGGLVQAGGSLRLSCAASGSTFGGNAMGWYRQAPGKERELVAAISSTGGSTYYADSVKGRFTISRDNAKNTVYLQMNSLKPEDTAVYYCAALYHWTYDYWGQGTQVTVSS | low polyreactivity
32 | QVQLVESGGGLVQAGGSLRLSCAASGSTFTPNAMGWYRQAPGKERELVAAINWSDSSTYYADSVKGRFTISRDNAKNTVYLQMNSLKPEETAVYYCAAAAQYGQLQVPVYYWGQGTQVTVSS | low polyreactivity
33 | QVQLVESGRGLVQAGGSLRLSCAASGSIFISYAKGWYRQAPGKERELVAAITWSGDSTYYADSVKGRFTISRDNAKNTVYLQMNSLKPEDTAVYYCAKGQSRSLIYGRYGYWGQGTQVTVSS | low polyreactivity
34 | QVQLGESGGGLVQAGGSLRLSCAASGSTFNIYAMGWSRQSPGNERELVAAISSCGGRTYYADSVKGRFTISLDNAKNTVYLQMNSVKPEDTAVYYCAAVRSYYRGYDYWGQGTQVTVSS | high polyreactivity
35 | QVQLVESGGGLVQAGGSLRLSCAASGSTFIHNAMGWYRQAPRKERELVAAITSGGSTYYADSVKGRFTISRDNAKNTVYLQMNSLKPEDTAVYYCNRGSWRYSTMEYWGQGTQVTVSS | high polyreactivity
36 | QVQLVESGGGLVQAGGSLRLSCAASGSTFVANAMGWYIQAPGKERELVAAISFNRGGNTYYADSVKGRFTISRDNAKNTVYLQMNSLKPEDTAVYYCAAAQRELPTVRRNYWGQGTQVTVSS | high polyreactivity
37 | QVQLVESGGGLVQAGGILRLSCAASGFTFHRYAMGWYRQAPGKERELVARITRGGSTKYADSVKGRFTISRDNAKNTVYLQMNSLKPEDTAVYYCAADYGGFLGYDYWGQGNQVTVSS | high polyreactivity
38 | QVQLVESGAGLVQAGGSLRLSCAASGSIFVVYAMGWYRQAPWKERELVAAISWGIGSTYYADSVKGRFTISRDNAKNTVYLQMNSLKPEDTAVYYCAADTDIVLYDYWGQGTQVTVSS | low polyreactivity
39 | QVQLQESGGGLVQAGGTLRLSCAVSGTIFFPLDMGWYRQAPGREREYVAAIAEGTSTYYADSVKGRFTISRDNAKNTVFPQMYSLKPEDTAVYYCAAYRSTPQQFHYWGQGTQVTVSS | high polyreactivity
40 | QVQLVESGGGLVQAGGSLRLSCAASGKTFDPNAMGWYIPAPGKEREFVAAIATIGSSTYYADSVKGRFTMSRDNAKNTVYLPMTCLKPEDSAVYYCAKGIYVVYGIDDYWGQGTQVTVSS | low polyreactivity
41 | QVQHVDSGGGLVQAGGSLRLSCAASGSTFFTYAMGWYRQEPGKERELVAAISQSSVRTHYADSVKGRFTISRDNAKNTVYLQMNSLKPEDTAVYYCAARVYGRQYPGAPYYYWGQGTQVTVSS | high polyreactivity
42 | QVQLVESGGGLVQAGGSLRLSCAASGSIFYRYAMGWSRQAPGKERELVAYISSGVSTNYADSVKGRFTISRDNAKKTVYLQMNSLKPEDTAVYYCAVRHSYTRAYWGRDFWGQGTQVTVSS | low polyreactivity
43 | QVQLVESGGGLDPAGGSLRLSCAASGFTFYRNAMGWYRQAPGKERELVAGITRSGGSTYYADSVKGRFTISRDNAKNTVYLQMNSLKPEDTAVYYCNKAYGGVKYSGTYDYWGQGTQVTVSS | high polyreactivity

— the nanobody polyreactivity screen of Harvey et al. (2022)
